# According to the supplement of paper PMC9112550, “Optimization of the antimicrobial peptide Bac7 by deep mutational scanning” (BMC Biology, 2022):
# Test system: Escherichia coli TOP10
# Test: shrunken log2 fold change of peptide-encoding DNA abundance (4.5 h post-induction vs induction); higher = less antimicrobial activity (less host growth inhibition)
# Conditions: time post-induction: 4.5 h; library: site-saturation at positions 5, 18, 19, 20
# 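Further: peptides expressed intracellularly from a pBAD plasmid library in pooled LB shake-flask culture, induced with 0.3% L-arabinose, DNA abundance read by NGS, three biological replicates, DESeq2 with apeglm shrinkage.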
row,Sequence,shrunken log2 fold change
1,RRIRCRPPRLPRPRPRPIGWPRP,-0.0817
2,RRIRERPPRLPRPRPRPGKDPRP,-0.24
3,RRIRIRPPRLPRPRPRPKGFPRP,0.0347
4,RRIRMRPPRLPRPRPRPALYPRP,0.765
5,RRIRWRPPRLPRPRPRPWLVPRP,-0.237
6,RRIRVRPPRLPRPRPRPPTWPRP,0.0832
7,RRIRWRPPRLPRPRPRPWLHPRP,-0.0248
8,RRIRQRPPRLPRPRPRPVCAPRP,0.118
9,RRIRHRPPRLPRPRPRPVTHPRP,-0.12
10,RRIRLRPPRLPRPRPRPNSFPRP,-0.191
11,RRIRNRPPRLPRPRPRPGYLPRP,0.114
12,RRIRMRPPRLPRPRPRPNCLPRP,-0.00154
13,RRIRNRPPRLPRPRPRPIWEPRP,-0.131
14,RRIRSRPPRLPRPRPRPLWKPRP,0.197
15,RRIRTRPPRLPRPRPRPHFRPRP,-0.284
16,RRIRNRPPRLPRPRPRPRTCPRP,-0.257
17,RRIRFRPPRLPRPRPRPKIHPRP,-0.557
18,RRIRMRPPRLPRPRPRPYGRPRP,0.0596
19,RRIRPRPPRLPRPRPRPNSEPRP,-0.211
20,RRIRSRPPRLPRPRPRPSASPRP,0.0953
21,RRIRYRPPRLPRPRPRPQEKPRP,-0.0798
22,RRIRNRPPRLPRPRPRPLYQPRP,-0.357
23,RRIRLRPPRLPRPRPRPWPHPRP,0.0514
24,RRIRIRPPRLPRPRPRPIHCPRP,-0.00133
25,RRIRCRPPRLPRPRPRPCLAPRP,-0.257

row,Sequence,shrunken log2 fold change
1,RRIRFRPPRLPRPRPRPIYMPRP,-0.878
2,RRIRGRPPRLPRPRPRPEIRPRP,0.122
3,RRIRGRPPRLPRPRPRPVSCPRP,0.885
4,RRIRTRPPRLPRPRPRPEASPRP,0.00709
5,RRIRARPPRLPRPRPRPYNSPRP,-1.21
6,RRIRTRPPRLPRPRPRPKEKPRP,0.0414
7,RRIRPRPPRLPRPRPRPFIVPRP,-0.257
8,RRIRERPPRLPRPRPRPVADPRP,-0.0439
9,RRIRPRPPRLPRPRPRPHAWPRP,0.189
10,RRIRDRPPRLPRPRPRPMDTPRP,-0.0196
11,RRIRNRPPRLPRPRPRPGQQPRP,-0.0199
12,RRIRRRPPRLPRPRPRPKIYPRP,-0.127
13,RRIRVRPPRLPRPRPRPRQHPRP,0.174
14,RRIRNRPPRLPRPRPRPMIFPRP,-0.287
15,RRIRHRPPRLPRPRPRPNHWPRP,-0.594
16,RRIRDRPPRLPRPRPRPENYPRP,0.0528
17,RRIRIRPPRLPRPRPRPLRKPRP,0.00781
18,RRIRGRPPRLPRPRPRPGGHPRP,0.779
19,RRIRYRPPRLPRPRPRPSMVPRP,-0.858
20,RRIRWRPPRLPRPRPRPAEMPRP,0.213
21,RRIRRRPPRLPRPRPRPKELPRP,0.166
22,RRIRHRPPRLPRPRPRPEQNPRP,0.0816
23,RRIRHRPPRLPRPRPRPTHIPRP,-0.468
24,RRIRWRPPRLPRPRPRPADLPRP,0.331
25,RRIRKRPPRLPRPRPRPELWPRP,1.42

row,Sequence,shrunken log2 fold change
1,RRIRHRPPRLPRPRPRPKLHPRP,-0.271
2,RRIRDRPPRLPRPRPRPYPMPRP,-0.348
3,RRIRARPPRLPRPRPRPIWPPRP,0.353
4,RRIRDRPPRLPRPRPRPTAAPRP,0.457
5,RRIRYRPPRLPRPRPRPILLPRP,-0.322
6,RRIRCRPPRLPRPRPRPWIHPRP,-0.277
7,RRIRYRPPRLPRPRPRPQPSPRP,0.0385
8,RRIRTRPPRLPRPRPRPYIWPRP,-0.329
9,RRIRYRPPRLPRPRPRPYQLPRP,-0.00146
10,RRIRCRPPRLPRPRPRPIRDPRP,-0.231
11,RRIRWRPPRLPRPRPRPYMYPRP,-0.848
12,RRIRRRPPRLPRPRPRPRMKPRP,0.309
13,RRIRARPPRLPRPRPRPCKDPRP,0.0511
14,RRIRNRPPRLPRPRPRPFMPPRP,-0.209
15,RRIRIRPPRLPRPRPRPIETPRP,-0.0467
16,RRIRLRPPRLPRPRPRPVAQPRP,0.391
17,RRIRNRPPRLPRPRPRPWYMPRP,-0.911
18,RRIRWRPPRLPRPRPRPTGDPRP,0.241
19,RRIRNRPPRLPRPRPRPYGCPRP,-0.146
20,RRIRPRPPRLPRPRPRPYTAPRP,-1.06
21,RRIRHRPPRLPRPRPRPNTWPRP,-0.0528
22,RRIRMRPPRLPRPRPRPCWNPRP,0.236
23,RRIRVRPPRLPRPRPRPLRQPRP,0.395
24,RRIRTRPPRLPRPRPRPAWEPRP,0.174
25,RRIRSRPPRLPRPRPRPKLIPRP,-0.257
